The source of these data is the DeepSol protein solubility set.

This data set is described as follows: soluble on expression in E. coli; label from the status in PepcDB or PDB records.
In the case of “MKIIFLLFGFIFHPNNAQFDKSGVQQTLDAHNEFRSSIAKGTYVTKGLLHAPATNIMKMKWNVTIATAAQNHANKCPKGHDGPLEGVSGECMWSGHINASKGVNHLGAVAAKAWSSEYTKKGWETDVMSDEFFNSGVGHAIIMTWYSQVNVGCGVKLCQKEGDYQLAIVVCKYWGEGQGNGKIMYESGPTCSACPPNTTCDQATGLCDSKIPDIPEPIYKYDELVNSKPAYTVVMGFFLMIIVQLI”, the “soluble on expression in E. coli” value is listed as “not soluble”.

Consider “MKIIKRNGSEAVFDISKIMMAVSRANEVVQANQKLSKAQINAIAAQVEEVCSTRPHAMNVEEIQDLVENQIMEQQAFEVARKYITYRYIRTLKRSSN”, for which the “soluble on expression in E. coli” value is “not soluble”.

Regarding “MKIKQALFTAGYSSFYFDDQQAIKNGAGHDGFIYTGDPVTPGFTSVRQAGECVSVQLILENGAVAVGDCAAVQYSGAGGRDPLFLAEHFIPFLNDHIKPLLEGRDVDAFLPNARFFDKLRIDGNLLHTAVRYGLSQALLDATALASGRLKTEVVCDEWQLPCVPEAIPLFGQSGDDRYIAVDKMILKGVDVLPHALINNVEEKLGFKGEKLREYVRWLSDRILSLRSSPRYHPTLHIDVYGTIGLIFDMDPVRCAEYIASLEKEAQGLPLYIEGPVDAGNKPDQIRMLTAITKELTRLGSGVKIVADEWCNTYQDIVDFTDAGSCHMVQIKTPDLGGIHNIVDAVLYCNKHGMEAYQGGTCNETEISARTCVHVALAARPMRMLIKPGMGFDEGLNIVFNEMNRTIALLQTKD”, the “soluble on expression in E. coli” value is “soluble”.

Regarding “MKIKSNLKLRRIGNRHMIVEVSDSCVNLTNVYSLNGTAARLWEMVCNGEGRTAGELAEGLCKTYDVEYGRALRDVERQIEEWEKMGLLSRRGTGD”, the “soluble on expression in E. coli” value is “not soluble”.

On to “MKILHTSDWHIGKTLYGHKRYDEFEAFFSWLVETIEQEQVDVLLIAGDIFDTSTPGNRSQQLYYRFLHRVAASACRHVVIIAGNHDSPSFLSAPRELLRALDVHVTGSLSGNPADEILVLHDPKGDAELIVCAVPHLRDRDIRTAEAGESMEDKSRKLVEGIRDHYAEVINLARLQRTALSSSIPIIAMGHLFVAGGQTVEGDGVRELYVGSLAHVPAGIFPPDIDYLALGHLHVPQRVNGSSVMRYSGSPLPIGFGEADQEKSVCLIEFNRQ”, for which the “soluble on expression in E. coli” value is “not soluble”.

On to “MKILVALAVFFLVSTQLFAEEIGANDDLNYWSDWYDSDQIKEELPEPFEHLLQRIARRPKPQQFFGLMGKRDADSSIEKQVALLKALYGHGQISHKRHKTDSFVGLMGKRALNSVAYERSAMQNYERRRLEHHHHHH”, for which the “soluble on expression in E. coli” value was “not soluble”.

As for “MKIMCKQEYYNQVVQYAESIKDTSLQNCMERLEAWEKNPDRPCEIELYHDWAPYSFGFTQRYPDGSRGIVGGLLYHGSPDESFAVQLTPFKGWQIHT”, the “soluble on expression in E. coli” value was “not soluble”.

Consider “MKINLDRTSSGFCIGVQGTIHVAEEKLAQSGELYCLGDVVHNEVEVKRLEALGMETIDIPAFEELRNAEVLIRAHGEPPSTYETARKNNLAITDTTCPVVAKLQRTAKMLHQLGYQVVIYGKKVHPEVIGINGQCDDEGVVIKHPDLSDPEEIAPLDLSRKTALISQTTMDVPGFYELKRNLEKLFAEHGHRNPGTQSGEWMAVRDIDITAEKTGALAMPKLVFKDTICRQVSSRNGKLRDFALANDCIVFAAGRKSSNGQVLYSICKDANPHSYFIEDVDEIRPEWFVGENGKPVESVGICGATSTPMWLLEKVANYIDKTFGDGSSNPNALEHHHHHH”, for which the “soluble on expression in E. coli” value was “not soluble”.

In the case of “MKIRSLIRVRLTRFFPSDRYIKNRCSGADGVLIDFEKKEDKVDDYKLSSFHRLKNSKFSLPKLLVDPVTTNSNQWIPRLIEEKSVDGVAMRNFTDDVISLDNEIFTMIWDTREQRITHSIISYHRINDCDIMWNSSIRTAVQDSLEHDIQPLAARTLRFRDYETAVQEFEILRQIGFTGAVIRNPNLIEMTNEIFEK”, the “soluble on expression in E. coli” value was “not soluble”.

Take “MKISIRHRYIAKIPALEVTTEEQKNEALPLIVYYHGWQSAKELSLTQARKLAHEGFRVILPDAMNHGERKTEPISTIPSITFWSSIQYNLIEFPVIIHHFHKLGLIKENWIGVGGVSMGGITTSALMTQHPEIQAAACLMGTPYPARYIQRVIQRAKEFAIFVPKDLPLLLSWVHQYDLSQTPERLQERPMLFWHGTEDEKIPYEDMADFEQLVSGKTYARNTQFITEIGERHLVKGETMDLVVDFFKEASKTLEK”: the “soluble on expression in E. coli” value was “not soluble”.

Turning to “MKITGVKAVFYSATGNTEEVVTAIAEKIAEKLGVSMEICNFTLPGGRTEVQTYAPSELVVFGTPVYAGRVPNKMLPVVQNNFKGEGALAVPVVTFGNRNFDNGLIELRNELENNGFHTIAGAGFAVSHVFSDKIAPGRPDEADREIMMRFAEAVAEKVEKMEEIPAPIEVRGEDPVGPYYTPLGTDGKPAVFLKAKPK”, the “soluble on expression in E. coli” value is on record as “not soluble”.

With “MKIVIAPDSFKESLSAEKCCQAIKAGFSTLFPDANYICLPIADGGEGTVDAMVAATGGNIVTLEVCGPMGEKVNAFYGLTGDGKTAVIEMAAASGLMLVAPEKRNPLLASSFGTGELIRHALDNDIRHIILGIGGSATVDGGMGMAQALGVRFLDADGQALAANGGNLARVASIEMDECDPRLANCHIEVACDVDNPLVGARGAAAVFGPQKGATPEMVEELEQGLQNYARVLQQQTEINVCQMAGGGAAGGMGIAAAVFLNADIKPGIEIVLNAVNLAQAVQGAALVITGEGRIDSQTAGGKAPLGVASVAKQFNVPVIGIAGVLGDGVEVVHQYGIDAVFSILPRLAPLAEVLASGETNLFNSARNIACAIKIGQGIKN”, the “soluble on expression in E. coli” value is “soluble”.

As for “MKIVLISGLSGSGKSVALRQMEDSGYFCVDNLPLEMLPALVSYHIERADETELAVSVDVRSGIDIGQAREQIASLRRLGHRVEVLFVEAEESVLVRRFSETRRGHPLSNQDMTLLESLKKEREWLFPLKEIAYCIDTSKMNAQQLRHAVRQWLKVERTGLLVILESFGFKYGVPNNADFMFDMRSLPNPYYDPELRPYTGMDKPVWDYLDGQPLVQEMVDDIERFVTHWLPRLEDESRSYVTVAIGCTGGQHRSVYIVEKLARRLKGRYELLIRHRQAQNLSDR”, the “soluble on expression in E. coli” value is “not soluble”.

On to “MKIYVSRSRLKSNRRRLINETDVERLFSRNGFQIIHPQELTIKEQINLFRHAQVIAGPLGSAMYNCVFQTKPTKKLLLTYEKFIKMSDLLINTSTNGLLYYFAGTEHKQNKSPSNTEWLEHHHHHH”, for which the “soluble on expression in E. coli” value is “soluble”.

For “MKKAIQFGAGNIGRGFIGGLLVKSGYHVVFADVNEYILNSINKDKKYTIHIRDVECIDEVIDNISAVSSIKEEIIDEIVQAEIITTAVGPLVLTKIASTIAKGIKARKEKGLTSNLNIIACENAIYASSSLKEEVLKYLNKEEVEYLEMYVGFPNCSVDRIVPPGKNENPLDVTVENFYEWNVEKQGFKGEIPTIVGMNLADNLMAYIERKLFTLNTGHAITAYIGYLKGYKTIEESIKDKFICDIVKSAMVESGEGLIKKYNFDSEVHYKYIDKILNRFKNPYLNDDVLRVGREPLRKLSDKDRLIKPLMTAKSYGLSVDNLILGIGAALHYNNSEDTQSVELQELIKSIGVKKAVAKIANISNDEELLNNIEKSYIFMKNL”, the “soluble on expression in E. coli” value was “not soluble”.

For the sequence “MKKALTTRHPPIDVYCICREVTEVMEKLHAADAETIPLASNIQMVNMVNNYVIMSYGLLHDDYEYGAITESCRKDVLLLLRELFPRKIYLWEN”, the “soluble on expression in E. coli” value is recorded as “soluble”.

Regarding “MKKDLISVVMSAYNSEKFISDSISSILDQTYENWELIIINDASSDNTLKIVNQFSEKDPRIKVIDNENNLGLTISLNIGINNSKGEFIARLDSDDFAEPSRLEKELDHLHAYPEAGLVGSGAHLINSSGNKIGSMNVMSQPYFVNRFLINLNPFIHSSIMVRKKALDNVGSYREKFRYSQDYDLILRLSDKYKLSNIALPLIRWRVSDSSVTMQHHTLQRIYADIAREFAIERRNSGHDSYESTEFDTLIHEMRIRNQGRYLCDHGVYDLLFNKKYKEGCSELIKGISKGGFPYNSFYRGITQVISKVNIQLEHHHHHH”, the “soluble on expression in E. coli” value is “not soluble”.

Turning to “MKKDLSALKEARFNAILDSATILLVENPTASMNEIAEYAGIGIATLHRYVESREKLMLFLGHRAIQLVSDTVNQIPLDEERSENYIPELIEALIPLGDKIYFLGHDASVFNNKELGEAEEKLREPLRRVIELLQQRGYFQQTVSSEWILNTLYALLFHTWEQVHEGNVAKKSAAELVLNTFYYGFKAKDELRGK”, the “soluble on expression in E. coli” value is given as “not soluble”.

On to “MKKEIKFSLVYRDMWQSSGKYQPRADQLVRIAPLIIEMGCFSRVETNGGAFEQVNLLYGENPNKAVRAFTKPFHEASIQTHMLDRGLNGLRMYPVPADVRRLMYKVKHAQGVDITRIFCGLNEVRNIIPSIHYALEAGMIPQATLCITFSPVHTVEYYTAIAERLIEAGAPEICLKDMAGVGRPEMLGRLTKAIKERHPEIIIQYHGHSGPGLSMASILEVCENGADIIDVAMEPISWGKVHPDVISVQAMLKDAGFQVPEINMKAYMKARAMTQEFIDDFLGYFMDPTNKHMSSLLLKCGLPGGMMGSMMADLKGVHSGINLILRGKNEPELSIDDLLVMLFDEVEYVWPKLGYPPLVTPFSQYVKNVALMNVMSLIKGEERWTMIDNHTWDMILGKSGRLPGALAPEIIALAKEKGYEFTDEDPQKNYPDQLDEYRKEMTENGWDFGQDDEELFELAMHDRQYRDYKSGIAKKRFEDDLQRAKDAALAKQGFSEEEVKRMKRAKAEPVTAMEKGQIIWEIDVESPSMPPEVGHKYDPDDVFCYIATPWHTYDKVLANFSGRVIEVCAKQGALVDKGEPLAYIERCEEPA”, for which the “soluble on expression in E. coli” value was “not soluble”.

Consider “MKKEPKGAKNRIVIAKDEKNVLTCTSEGFEYTPDIVKNVYGKSSRPALEDWFLTELDFFRRYYPGYEVFTLGSSCVFGEKFVNYLTICEFDIDSTYAFDCLKKALRESDQAIRRKLSAMWKWDIAARKDWSIVFMVGHMDFAYFLQHRKEFQEDAHKRFMSTFTTAETKITSRDYKVMHDGAILPFDETALSPEDRFIFENYQKIKFETTPL”, for which the “soluble on expression in E. coli” value is “soluble”.

Consider “MKKERKPKIVIMGGGTGLSVLLRGLKQYPVDITAVVTIADDGGSSGRLRDELEIPPPGDIRNVLVALSDVEPLVEALFQHRFTTGDGLKGHALGNLLLAGMTSITGDFFHAITETSKVLNVRGRVLPAANQSAVLHAELEDGEIVTGESKIPYYGKKINRVFLTPEDVEPLHETLAEIKRADLLVFGPGSLYTSILPNLVVNKIGDAVLAAKAKKVYVCNVMTQAGETMGYTAFDHVQALHDHLGQPFINTAIVNNREIPCELRKSYEEEMSTPVVVDEERFVENNIDVIQEGLAKYDDHVVRHDTLKLASILYSLLMAGDPLEHHHHHH”, for which the “soluble on expression in E. coli” value is “soluble”.

Take “MKKGILIILLVLMVLSCGTSKKVTLPDKDIKIENETVFFKNEKYTGKINLKDKNSVSGFITFKDGHLDGPTELKNDKKQMYTKFNIVNNQFEGETVVKNADQGINMTVNYNNGKIVKLLGDYSKTVKYDITFVDGLANGWFESEGEKFVFSDGVLTLEEDGITTEVKYYVNQETGDMGMEFFINGKSAGRDEKPNKVFGMEYFRIIAISSILEENSKGKDK”: the “soluble on expression in E. coli” value was “not soluble”.
